Experimental data from PMC6423499 (2019).

Target: VHL (VHL/ElonginB/ElonginC, VCB) as used in solution (UniProt P40337 1-213; Q15370 1-104; Q15369 17-112)
Assay: FP; MZ1 ternary

Chain of VHL (VHL/ElonginB/ElonginC, VCB) as used in solution (P40337 whole entry, chain 1 of 3): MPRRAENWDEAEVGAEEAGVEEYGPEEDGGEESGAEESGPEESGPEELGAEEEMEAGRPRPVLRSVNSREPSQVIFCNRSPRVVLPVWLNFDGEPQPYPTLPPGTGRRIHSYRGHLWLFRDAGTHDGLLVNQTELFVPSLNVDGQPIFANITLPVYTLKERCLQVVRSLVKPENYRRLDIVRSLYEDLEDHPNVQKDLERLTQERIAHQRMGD
Chain of VHL (VHL/ElonginB/ElonginC, VCB) as used in solution (Q15370 1-104, chain 2 of 3): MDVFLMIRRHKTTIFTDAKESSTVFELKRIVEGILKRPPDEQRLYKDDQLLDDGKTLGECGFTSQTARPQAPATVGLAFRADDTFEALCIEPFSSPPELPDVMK
Chain of VHL (VHL/ElonginB/ElonginC, VCB) as used in solution (Q15369 17-112, chain 3 of 3): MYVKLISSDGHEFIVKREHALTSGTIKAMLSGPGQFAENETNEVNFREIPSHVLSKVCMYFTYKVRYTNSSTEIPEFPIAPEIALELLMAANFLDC

B1: Brd2^BD2 with the G-to-E point mutation at Gly382 (domain or fragment)
chain: GKLSEQLKHCNGILKELLSKKHAAYAWPFYKPVDASALELHDYHDIIKHPMDLSTVKRKMENRDYRDAQEFAADVRLMFSNCYKYNPPDHDVVAMARKLQDVFEFRYAKMPD
Ki: 6 nM
